Reference: a protein production outcome set (Wang et al. 2014)

Experiment: label from the status in PepcDB records

Sequence: MSFSRHIGVTMIDVVDLSRLQFALTAMYHFLFVPLTLGMAFLLAIMESMYVMTNKQIYKDMTKFWGKLFGINFALGVATGLTMEFQFGTNWSYYSHYVGDIFGAPLAIEALVAFFLESTFVGLFFFGWDRLSKRQHLAVTWLVALGSNFSALWILIANGWMQNPVGADFNFETMRMEMVSFSEVVLNPVAQVKFVHTVASGYTCGAMFILGISSYYLLKGRDIAFARRSFAIAASFGIAAILSTIVLGDESGYELGEVQKVKLAAIEAEWHTEPAPAAFTLFGVPNQETMHTDYAIKIPYVMGIIATRSFDEQVTGLRDLRDEHVERIRGGMYAYELLEKLRAGDKSEENMTAFDEVKGDLGYGLLLKRYTDNVVDATEEQIQAAADDSIPTVWPLFWSFRIMVACGFIMLFVFGAAFIQTCRQKIEQKQWILKAALLSIPLPWIAIEAGWFVAEYGRQPWAVGEILPVHVAASALTAGEIWTSLFAILALYTVFLIAEVYLMLKFARKGPSSLKTGRYHFEQNADSVEDKVSRQVEA
- protein production: failed

Sequence: MSFVPSLPNLGRFWTAANALSLCRLALVVPITVFLWRDGPLGWLLGLVILVILTDWFDGRIARWTHSVSDWGKVIDPVADKFAAIMTVTALTFRPADPHLPLWFFGLVVGRDVAILLGGMAIARRSGQIVMSAWAGKAASLWLALTILSVILRADPPVFRVCLWMATGLFVFSFLLYVVRYLQATRNAEGATPDSVPQGP
- protein production: failed

Sequence: MSGARNVEQWQDFIGSCLDFRPADGVFRIARDMFTEPELFDLEMELIFEKNWIYACHESELPNNHDFITMRAGRQPMIITRDGEGRLNALVNACQHRGTTLTRVGKGNQSTFTCPFHAWCYKSDGRLVKVKAPGEYDEGFDKATRGLKKARIESYKGFVFISLDVAADNSLEDFLGDARIFFDMMVAQSPDGELEVLPGKSAYTYDGNWKLQNENGLDGYHVSTVHYNYVATVQHRQQVNADSGAGSSATLDYSKLGAGDASTDDGWFAFENGHSVLFSEMPNPAVRSGYASIMPRLVAEHGQAKAEWMMHRLRNLNIYPSLFFLDQISSQLRIIRPIAWNKTEIISQCIGVKGESDADRENRIRQFEDFFNVSGMGTPDDLVEFREAQRGFQGRLERWSDISRGRQHWVSGPTANSENLGIQPAMTGTEITHEGLYVNQHRNWQKFLLDGLQRRPLKLREV
- protein production: failed

Sequence: MSGEGNLGKDHEEENEAPLPGFRFHPTDEELLGYYLRRKVENKTIKLELIKQIDIYKYDPWDLPRVSSVGEKEWYFFCMRGRKYRNSVRPNRVTGSGFWKATGIDKPVYSNLDCVGLKKSLVYYLGSAGKGTKTDWMMHEFRLPSTTKTDSPAQQAEVWTLCRIFKRVTSQRNPTILPPNRKPVITLTDTCSKTSSLDSDHTSHRTVDSMSHEPPLPQPQNPYWNQHIVGFNQPTYTGNDNNLLMSFWNGNGGDFIGDSASWDELRSVIDGNTKP
- protein production: failed

Sequence: MSGHDHGDDGVNRRKVLECMTWAGTGVLWTITGGVPRSLGIIDSAQAATAAAPGMTFLQISDSHVGFDKPANPNALGTLEEAINKINAMPAKPSFMIHTGDITHLSKAAEFDNAERIISQTKLDVHYVPGEHDFIDEEVKLYRERYGRGTKGHGWYSFDAGGVHFVGLVNVVDLKAGGLGNLGAEQLAWLEDDLRGKSKSTPVVLFAHIPLWTVYPEWGWGTEDGGRALEYVKGFGSVTVLNGHIHQVMQKVEGNVTFHTARSTAFPQPAPGAAPSPGPMKVEDARLRSMLGVASINFKQNEQRLAIIDTPLQG
- protein production: failed

Sequence: MSGISSLGGRVGVTILEILIFSAGLLLLIKGSDIFVEAATRIAEAFKVSEFLIALVLASVATTLPEVTVSAISSYRGNSGIAIGNAVGSALANIALILAISAMIMPLNVDKIASENSLIMVGVTFYAWLLMSNGEISRIEGLTLVLIYAAFLYYLYRKHVKLEEVEKKSRCNVTRDVLILFLSGGMVILGAELVVDSAVKIARAIGIPEVVIGVTLVSIGTSLPEFANSLTATLKKIPNVSVGNIIGADILDILMVIGIASMIRPIRVDPSIVKIVMPITLLVMIILTVSLFRNNKIGRKTAVTLLIIYSAFIYLLTQGKVYIPG
- protein production: failed

Sequence: MSGKNIVFLVLLLFIPVSLAAHYLEWGDLIVFITAGLAILPLAAWMGAATEEIAVVVGPTLGGLLNATFGNATELIIALVALNAGLVNVVKASITGSIIGNLLLVMGLSMLLGGLRHKEQTFQPIVARVNASAMNLAVIAILLPTAMNYTAQGIGEETLQYLSVAVAVVLILVYILTLIFSMKTHAYLYDVGVAEIETEENPHPKPNILLWSGVLLVCTLLVAVESELLVDALEVATSQLGLTALFTGVILVPIVGNAAEHATAVTVAMKDKMDLSVSVAVGSSMQIALFVAPVLVIAGWILGQPMDLDFQPFELVAVVVSVLIANSISSDGKSNWLEGTLLLAAYTVLGFAFYFHPDVGGLG
- protein production: failed

Sequence: MSGKRVAKNTLFQIVKMLITTVVNLYMVRVLLHQLGVEGYGIFNLIAGVLALMLFLNGAMTTSSQRYLSFYSTQQLEKRTSVFATTKSLHIVVAMIIFLLLFSLQTFIFEDLINIPVSVVSSAQSLYQIMAVGVLASVVTVPFNAQINANEDLGIDAVFSVFESLFKLIAAFLIVFFENQLVSLGALFVLVSWTMLIVKVVYCRIKYEECNLLNFKLDIALFKEMIGFTSWNSFGAICGVARVQGLAVVLNHFFGVYINAVYAIAVQVNGKLKEFSINIMKAFNPRIVKAESKDNREEMLHLSMLASRFSLLLYSVIALPIFFETDFMLSIWLGDYPDGVLTFIKLFLVLAFVNLTTVGLQTAIQATGDVKAYQSTIGSVLLLTVPLAYIFLSLGYPPYTVIVVSIFMEVVSCGMRLAFLKLKAGLSIKKYILFVINKALQVLIPTIVVLFSLTISFEQSILRFISTTLVSFGMISFLTYWLVLGVEEKKMIRLKV
- protein production: not failed

Sequence: MSGPEAEQQSVVLYDIEDKPPLGKAIPLGIQHVLAMFLGNVAPPLILAGAVGSVTGETTFLVQMALIVAGIATIVQAYPVGPVGARLPVVMGTSFAFLGPLIGIGNQFGIAAVFGASLLAAPVEVIMGVSFDRFRRFFPPLVTGIVVMLIGLTLIPTGMNYAAGASAGPSAEGYGSFVNLGLAGLVLIVTVGLNQFFEGFLRVISVFVGIIVGYLAALALGVVDLSAVAAAGWVTVPVPLKYGLAFEPSAVVTVAFLYIITGMETIGDISGTVSATGRNATREEIRGGLVADGVMSVFGAVFNALPNTSFSQNVGLVNFTGVASRYVAGIGGVVLLALGFIPKVGAVVSAMPDAVLGGGALILFAMIFSSGARLITQNVELDHRNSTILAMSMALGLGVAFRPEILQNFPSEVQTLFGSALVTGGMAALILNIVFPGGSVGTGPTEYTAGLEPDPVETGAGAPPVDDD
- protein production: failed

Sequence: MSGSLRDSAIDHFNKTISLMQKRQNKEALEELEKAEEAAKQAKANDILIHTVNLRGQLMLTLGALDEVLRICGFASNFFADILLKDPENEFFQQSFQMNLNNLGTTGNFYHNTGRFPQAKKAYETGLGITLKLLQSSPQDDFLQNYTGTTLNNLGNLLSDMGRIEDAKNRYEKALEMREKLLEKDPENVAYQSYVGGTLNNLGNLLKNMGRIEDAKNRYEKALEMREKLLEKDPENVAYQSYVAMTLNNLGNLLKNMGRIEDAKNKYEKALEMREKLLEKDPENVAYQSDVAMTLNNLGTLLSDLGKIEDAKNRYEKALEIYEKLLENDPENVAYQSYVAMALNNLGNLLKNMGRIEDAKNRYEKALEMREKLLENDPENVAYQSDVAMTLNNLGTLLSDMGRIEDAKNRYEKALEIYEKLLEKDPENIAYQSDIGGTLNNLGTLLSDMGRIEDAKNRYEKALEIYEKLLEKDPENIAYQSEVGGTLNNLGTLLSDMGRIEDAKNRYEKALEIYEKLLEKDPENIAYQSEVGTMLNNLGNLLSDMGRIEDAKNRYKKALEIYEKLLEKDPENIAYQSYVGGTLNNLGNLLSDMGRIEDAKNRYKKALEIYEKLLEKDPENVAYQSYVGTMLNNLGTLLSDMGRIEDAKNRYKKALEIYEKLLEKDPENVAYQSYVGGTLNNLGNLLSDMGRIEDAKNRYKKALGIYEKLLEKDPGNLAYHSEVNTIQCKVKKVKGSGRC
- protein production: failed

Sequence: MSGTGEVRGMRAARIAAGAVIPGELALAVCLAAGVRPPVWATAAAEAVALAVLMLEAWVLRSLYASRRAQGLEPPAALRAAVRAVVPARVRRLLVHELRAAASLGRWAARRKHGVRPGDHVAGYTGPQTAMMYGLIFVSVIETVALAVLIPWPVVHRVLLVLDVYGVLMMLGLHAACVTRPHVARPDGSLRIRYGALFDLAVPADAVASVRVDRCYPQGRLVTLSEKGVLDLIVAGQTTVTLELTRPLVFTRPLGGRGEARTIRFHADDPRALVGALRRPALT
- protein production: failed

Sequence: MSGVILGRYWGGLSQLIYVIIGAAGVPWFADMSGGPEVLLGATGGYLLGFILAALLLGHFVDRHIRARKFTPMLGLMTIANFGLIYIPGLVVLGLWSLKTQGTLPGPWELLVMGLLPFIPGDILKITGAAALTRAITPKEPYGEEIDIQKAEGWRVP
- protein production: failed
